Data on 2 proteins can be found in publication PMC11988671, “SIRT7 Is a Lysine Deacylase with a Preference for Depropionylation and Demyristoylation” (International Journal of Molecular Sciences, 2025).

Several values for one entry are separate records, joined by “and”; a condition that tells them apart may be missing. Equal entries are not always repeated.

Substrate in series [1]: NC(=O)c1ccc[n+]([C@@H]2O[C@H](COP(=O)([O-])OP(=O)(O)OC[C@H]3O[C@@H](n4cnc5c(N)ncnc54)[C@H](O)[C@@H]3O)[C@@H](O)[C@H]2O)c1
Kind of series: Enzyme kinetics with variable NAD^+ (in vitro deacetylation, Michaelis-Menten), SIRT1. The class given is biochemical, mouse. To be noted: other: SIRT1 with the H3K9Ac peptide. The protocol:
(§1) In the case of the SIRT1 enzymatic reaction, 8 µM peptide was incubated in 50 µL reaction buffer containing 10 mM NaCl, 10 mM KCl, 20 mM Tris-HCl pH 8.0, 1.0 mM NAD^+, and 1 mM DTT, with or without 1 µg recombinant SIRT1. The reaction mixtures were incubated for 24 h for SIRT7 or 2 h for SIRT1 at 37 °C.
(§2) For enzyme kinetics with variable concentrations of the NAD^+ substrate, an in vitro deacylation assay was performed using wild-type SIRT7 and SIRT1 with serial dilutions of the NAD^+ substrate. The reaction was incubated at 37 °C for the appropriate time, which was within the linear part of the progression curve (60 min for SIRT7 and 10 min for SIRT1). […] Each enzymatic assay was conducted in triplicate, and the resulting data were plotted and fitted to the Michaelis–Menten equation using GraphPad Prism version 8.0.2 (GraphPad Software, Boston, MA, USA).
(§3) The general conditions for electrospray ionization-MS were as follows: nebulizer gas, N2, delivered at 50 psi; nebulizer gas temperature, 250 °C; capillary voltage, 3500 V; and collision gas, G1 grade N2 (Taiyo Nippon Sanso Corporation, Tokyo, Japan).

Substrate in series [2]: NC(=O)c1ccc[n+]([C@@H]2O[C@H](COP(=O)([O-])OP(=O)(O)OC[C@H]3O[C@@H](n4cnc5c(N)ncnc54)[C@H](O)[C@@H]3O)[C@@H](O)[C@H]2O)c1
Kind of series: Enzyme kinetics with variable NAD^+ (in vitro deacylation, Michaelis-Menten), SIRT7 in presence of RNA. The class given is biochemical, mouse. Conditions: for Km: in the presence of RNA; for kcat: NAD^+-dependent deacylation. The protocol:
as §1, §2, §3

A word on the Km: it is the substrate concentration at which the rate is half of its maximum. Usually kcat/Km stands for the second-order rate constant that governs catalysis at low substrate concentration. Broadly, the kcat is the number of substrate molecules converted per active site and unit of time at saturation.

B1: SIRT1 (Mus musculus) (protein)
chain: MADEVALALQAAGSPSAAAAMEAASQPADEPLRKRPRRDGPGLGRSPGEPSAAVAPAAAGCEAASAAAPAALWREAAGAAASAEREAPATAVAGDGDNGSGLRREPRAADDFDDDEGEEEDEAAAAAAAAAIGYRDNLLLTDGLLTNGFHSCESDDDDRTSHASSSDWTPRPRIGPYTFVQQHLMIGTDPRTILKDLLPETIPPPELDDMTLWQIVINILSEPPKRKKRKDINTIEDAVKLLQECKKIIVLTGAGVSVSCGIPDFRSRDGIYARLAVDFPDLPDPQAMFDIEYFRKDPRPFFKFAKEIYPGQFQPSLCHKFIALSDKEGKLLRNYTQNIDTLEQVAGIQRILQCHGSFATASCLICKYKVDCEAVRGDIFNQVVPRCPRCPADEPLAIMKPEIVFFGENLPEQFHRAMKYDKDEVDLLIVIGSSLKVRPVALIPSSIPHEVPQILINREPLPHLHFDVELLGDCDVIINELCHRLGGEYAKLCCNPVKLSEITEKPPRPQKELVHLSELPPTPLHISEDSSSPERTVPQDSSVIATLVDQATNNNVNDLEVSESSCVEEKPQEVQTSRNVENINVENPDFKAVGSSTADKNERTSVAETVRKCWPNRLAKEQISKRLEGNQYLFVPPNRYIFHGAEVYSDSEDDVLSSSSCGSNSDSGTCQSPSLEEPLEDESEIEEFYNGLEDDTERPECAGGSGFGADGGDQEVVNEAIATRQELTDVNYPSDKS
notes: HaloTag (N, cleaved yes); made in house; host or cells: E. coli K12 KRX
Turning to B1, the Km in series [1] came to 14 µM.

B2: SIRT7 (Mus musculus) (protein)
chain: MAAGGGLSRSERKAAERVRRLREEQQRERLRQVSRILRKAAAERSAEEGRLLAESEDLVTELQGRSRRREGLKRRQEEVCDDPEELRRKVRELAGAVRSARHLVVYTGAGISTAASIPDYRGPNGVWTLLQKGRPVSAADLSEAEPTLTHMSITRLHEQKLVQHVVSQNCDGLHLRSGLPRTAISELHGNMYIEVCTSCIPNREYVRVFDVTERTALHRHLTGRTCHKCGTQLRDTIVHFGERGTLGQPLNWEAATEAASKADTILCLGSSLKVLKKYPRLWCMTKPPSRRPKLYIVNLQWTPKDDWAALKLHGKCDDVMQLLMNELGLEIPVYNRWQDPIFSLATPLRAGEEGSHSRKSLCRSREEAPPGDQSDPLASAPPILGGWFGRGCAKRAKRKKVA
notes: as for B1
As to B2, the kcat/Km in series [2] (other: acetyl H3K18 peptide) came to 0.844 ± 0.024 M⁻¹ s⁻¹; in series [2] (other: butyryl H3K18 peptide), 2.10 ± 0.061 M⁻¹ s⁻¹; in series [2] (other: myristoyl H3K18 peptide), 11.9 ± 0.695 M⁻¹ s⁻¹; in series [2] (other: octanoyl H3K18 peptide), 3.74 ± 0.124 M⁻¹ s⁻¹; in series [2] (other: palmitoyl H3K18 peptide), 2.35 ± 0.224 M⁻¹ s⁻¹; in series [2] (other: propionyl H3K18 peptide), 10.9 ± 0.633 M⁻¹ s⁻¹. Moreover, the kcat/Km in series [2] (other: succinyl H3K18 peptide) came to 2.01 ± 0.390 M⁻¹ s⁻¹. Also, the Km is 445.3 ± 28.5 µM in series [2] (other: acetyl H3K18 peptide (H3K18Ac)); 678.6 ± 83.6 µM in series [2] (other: butyryl H3K18 peptide); 153 µM and 153.2 ± 8.8 µM in series [2] (other: myristoyl H3K18 peptide); 470.0 ± 16.7 µM in series [2] (other: octanoyl H3K18 peptide); 633 µM and 633.5 ± 37.5 µM in series [2] (other: palmitoyl H3K18 peptide); 185.1 ± 7.6 µM in series [2] (other: propionyl H3K18 peptide). Moreover, in series [2] (other: succinyl H3K18 peptide), the Km is 114 µM and 114.9 ± 30.4 µM. Also, the kcat in series [2] (other: acetyl H3K18 peptide) was 0.000376 ± 1.52e-05 s⁻¹; in series [2] (other: butyryl H3K18 peptide), 0.00143 ± 0.00015 s⁻¹; in series [2] (other: myristoyl H3K18 peptide), 0.00183 ± 8.23e-05 s⁻¹; in series [2] (other: octanoyl H3K18 peptide), 0.00176 ± 6.48e-05 s⁻¹; in series [2] (other: palmitoyl H3K18 peptide), 0.00149 ± 0.000101 s⁻¹; in series [2] (other: propionyl H3K18 peptide) it was 0.00202 ± 4.14e-05 s⁻¹. Also, in series [2] (other: succinyl H3K18 peptide), the kcat is 0.000224 ± 1.68e-05 s⁻¹.
